Earlier results on 2 substances are cited in publication PMC8480781.

For data set [1], the target named is Glu66 (UniProt position 148, FTKKMEENAKK). As to the kind of experiment: stability. The conditions noted are these: PHS V66E; state not stated.
Data set [2] concerns the target Lys66 (UniProt position 148, FTKKMKENAKK). Kind of data set: potentiometry. The conditions noted are these: PHS V66K; state not stated.

Turning to “Staphylococcal nuclease PHS V66E (Staphylococcus aureus; P117G;H124L;S128A;V66E)”, the pKa in data set [1] is on record as 8.73–9.28.
Take “Staphylococcal nuclease PHS V66K (Staphylococcus aureus; P117G;H124L;S128A;V66K)”: in data set [2], the pKa is listed as 6.25–6.45.
